{"source": "paper PMC11333002", "about": "“Molecular dynamics simulations reveal how vinculin refolds partially unfolded talin rod helices to stabilize them against mechanical force” (PLOS Computational Biology, 2024)", "molecules": {"B1": {"name": "Q19S vinculin: full-length mEmerald-vinculin with Q19S mutation (protein, UniProt Q64727 1-1066, looked up, variant Q19S)", "chain": "MPVFHTRTIESILEPVAQSISHLVIMHEEGEVDGKAIPDLTAPVAAVQAAVSNLVRVGKETVQTTEDQILKRDMPPAFIKVENACTKLVQAAQMLQSDPYSVPARDYLIDGSRGILSGTSDLLLTFDEAEVRKIIRVCKGILEYLTVAEVVETMEDLVTYTKNLGPGMTKMAKMIDERQQELTHQEHRVMLVNSMNTVKELLPVLISAMKIFVTTKNSKNQGIEEALKNRNFTVEKMSAEINEIIRVLQLTSWDEDAWASKDTEAMKRALASIDSKLNQAKGWLRDPNASPGDAGEQAIRQILDEAGKVGELCAGKERREILGTCKMLGQMTDQVADLRARGQGASPVAMQKAQQVSQGLDVLTAKVENAARKLEAMTNSKQSIAKKIDAAQNWLADPNGGPEGEEQIRGALAEARKIAELCDDPKERDDILRSLGEIAALTSKLGDLRRQGKGDSPEARALAKQVATALQNLQTKTNRAVANSRPAKAAVHLEGKIEQAQRWIDNPTVDDRGVGQAAIRGLVAEGHRLANVMMGPYRQDLLAKCDRVDQLTAQLADLAARGEGESPQARALASQLQDSLKDLKAQMQEAMTQEVSDVFSDTTTPIKLLAVAATAPPDAPNREEVFDERAANFENHSGRLGATAEKAAAVGTANKSTVEGIQASVKTARELTPQVISAARILLRNPGNQAAYEHFETMKNQWIDNVEKMTGLVDEAIDTKSLLDASEEAIKKDLDKCKVAMANIQPQMLVAGATSIARRANRILLVAKREVENSEDPKFREAVKAASDELSKTISPMVMDAKAVAGNISDPGLQKSFLDSGYRILGAVAKVREAFQPQEPDFPPPPPDLEQLRLTDELAPPKPPLPEGEVPPPRPPPPEEKDEEFPEQKAGEVINQPMMMAARQLHDEARKWSSKGNDIIAAAKRMALLMAEMSRLVRGGSGTKRALIQCAKDIAKASDEVTRLAKEVAKQCTDKRIRTNLLQVCERIPTISTQLKILSTVKATMLGRTNISDEESEQATEMLVHNAQNLMQSVKETVREAEAASIKIRTDAGFTLRWVRKTPWYQ", "modifications": "full-length mEmerald", "notes": "full-length mEmerald-vinculin with Q19S mutation"}, "B2": {"name": "vinculin: vinculin in cited magnetic tweezers experiments with talin (protein, UniProt P18206 1-1134, looked up)", "Vinculin": "MPVFHTRTIESILEPVAQQISHLVIMHEEGEVDGKAIPDLTAPVAAVQAAVSNLVRVGKETVQTTEDQILKRDMPPAFIKVENACTKLVQAAQMLQSDPYSVPARDYLIDGSRGILSGTSDLLLTFDEAEVRKIIRVCKGILEYLTVAEVVETMEDLVTYTKNLGPGMTKMAKMIDERQQELTHQEHRVMLVNSMNTVKELLPVLISAMKIFVTTKNSKNQGIEEALKNRNFTVEKMSAEINEIIRVLQLTSWDEDAWASKDTEAMKRALASIDSKLNQAKGWLRDPSASPGDAGEQAIRQILDEAGKVGELCAGKERREILGTCKMLGQMTDQVADLRARGQGSSPVAMQKAQQVSQGLDVLTAKVENAARKLEAMTNSKQSIAKKIDAAQNWLADPNGGPEGEEQIRGALAEARKIAELCDDPKERDDILRSLGEISALTSKLADLRRQGKGDSPEARALAKQVATALQNLQTKTNRAVANSRPAKAAVHLEGKIEQAQRWIDNPTVDDRGVGQAAIRGLVAEGHRLANVMMGPYRQDLLAKCDRVDQLTAQLADLAARGEGESPQARALASQLQDSLKDLKARMQEAMTQEVSDVFSDTTTPIKLLAVAATAPPDAPNREEVFDERAANFENHSGKLGATAEKAAAVGTANKSTVEGIQASVKTARELTPQVVSAARILLRNPGNQAAYEHFETMKNQWIDNVEKMTGLVDEAIDTKSLLDASEEAIKKDLDKCKVAMANIQPQMLVAGATSIARRANRILLVAKREVENSEDPKFREAVKAASDELSKTISPMVMDAKAVAGNISDPGLQKSFLDSGYRILGAVAKVREAFQPQEPDFPPPPPDLEQLRLTDELAPPKPPLPEGEVPPPRPPPPEEKDEEFPEQKAGEVINQPMMMAARQLHDEARKWSSKPGIPAAEVGIGVVAEADAADAAGFPVPPDMEDDYEPELLLMPSNQPVNQPILAAAQSLHREATKWSSKGNDIIAAAKRMALLMAEMSRLVRGGSGTKRALIQCAKDIAKASDEVTRLAKEVAKQCTDKRIRTNLLQVCERIPTISTQLKILSTVKATMLGRTNISDEESEQATEMLVHNAQNLMQSVKETVREAEAASIKIRTDAGFTLRWVRKTPWYQ"}}, "key": {"[1]": {"biological_target": "mouse talin1 R1 VBS (H4) peptide, fluorescein labelled (mouse)", "sequence (peptide, as listed by the source)": "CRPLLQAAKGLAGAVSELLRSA", "assay": "fluorescence polarisation; fluorescein-labelled VBS peptide at 700 nM, 2-fold serial dilution of protein, triplicate, 25°C; one-site total binding equation"}, "[2]": {"system": "Vinculin-null mouse embryonic fibroblasts (MEF)", "assay": "Adhesion localization, vinculin/talin intensity (immunostaining, confocal)", "type": "cell-based", "conditions": "full-length vinculin; vs WT vinculin; n = 22 (WT) and 23 (Q19S) cells", "experimental": "Vinculin-null mouse embryonic fibroblasts (MEF) were a kind gift from Prof. Carsten Grashoff (University of Münster) and have been previously described. Cells were maintained at 10–80% confluency in high-glucose Dulbecco’s modified Eagle medium with GlutaMax (10566016, Thermo Fisher Scientific) supplemented with 10% fetal bovine serum (Gibco) in a humidified 37°C, 5% CO2 incubator. For FRAP experiments, Vin-/- MEF cells were adapted to FluoroBrite DMEM medium (Thermo Fisher Scientific) supplemented with 10% fetal bovine serum and 1% GlutaMax for a minimum of 48 hours.\nmEmerald-Vinculin-N-21 was a gift from Michael Davidson (Addgene plasmid # 54304; http://n2t.net/addgene:54304; RRID:Addgene_54304). To restore the wildtype human vinculin sequence, L234V backmutation was introduced to all vinculin constructs. Q19S mutation was introduced by GenScript cloning service. All plasmid constructs were authenticated by sequencing. Vin-/- MEF cells were transfected with the Neon transfection system (Thermo Fisher Scientific). […]\nFor adhesion intensity analysis, immunostained cells were imaged using a Nikon Eclipse Ti2-E inverted microscope equipped with A1R+ laser scanning confocal unit (Nikon) and Nikon CFI Plan Apo IR SR 60x WI (NA 1.27) objective. […] Talin and vinculin intensities in adhesion sites were analyzed using Fiji distribution of ImageJ 1.53t. […]"}, "talin": {"system": "talin", "conditions": "cited from earlier work", "text": "(Fig 1H). However, how the complexation occurs when the VBS structure is destabilized by force remains unclear. ... || Constant velocity SMD is known to overestimate the unfolding force magnitude, and the measured unfolding forces were approximately one order of magnitude higher when compared to the force required experimentally for vinculin dissociation from talin (above 25 pN). Therefore, to reach unfolding force magnitude within the force range seen in previous studies (<100 pN), we performed microsecond-scale constant force SMD simulations. Using constant force at 70 pN, we achieved limited but noticeable VBS destabilization in the vinculin-bound state within 3 μs. Increasing the fo ... || To assess the thermodynamic parameters of recognition and binding of partially unfolded talin VBS by vinculin, we used umbrella sampling and the weighted histogram analysis method to calculate the vinculin–VBS binding energy profiles. We used two different starting states of VBS: 1) fully α-helical VBS and 2) partially unfolded VBS, stretched by 1.5 nm. This distance was chosen to be consistent with the previously observed contractions upon vinculin binding to R3 (∼1.5–2.5 nm per VBS, depending on force magnitude). The whole process of vinculin–VBS binding was divided into three ... || (+ 2 further places)"}}, "note": "Where two headings read alike, the source gives them in different places.", "data": [{"molecule": "VD1 domain of mouse vinculin, Q19S (domain or fragment)", "values": [{"measurement": "fold higher affinity than WT mVD1", "setting": "[1]", "result": 1.75, "unit": "fold"}]}, {"molecule": "B1", "values": [{"measurement": "incorporation into talin-rich focal adhesions", "setting": "[2]", "result": "incorporated into talin-rich focal adhesions similarly"}]}, {"molecule": "B2", "values": [{"measurement": "vinculin–VBS binding above 15 pN", "setting": "talin; above 15 pN, ref [26]", "result": "fast transition"}, {"measurement": "increase in talin end-to-end distance on vinculin dissociation", "setting": "talin; above 25 pN, ref [22],[26]", "result": "~3", "unit": "nm"}, {"measurement": "contraction per VBS on vinculin binding to R3", "setting": "talin; depending on force magnitude, ref [26]", "result": "1.5–2.5 nm"}, {"measurement": "time of vinculin–VBS binding under lower forces", "setting": "talin; lower forces, ref [26]", "result": "within hundreds of milliseconds"}, {"measurement": "force for vinculin dissociation from talin", "setting": "talin; ref [22],[26]", "result": "above 25 pN"}, {"measurement": "reduction in talin end-to-end distance on vinculin binding", "setting": "talin; talin R3, 9 pN, ref [26]", "result": "~ 1.5 nm"}, {"measurement": "reduction in talin end-to-end distance on vinculin binding", "setting": "talin; talin R3, 20 pN, ref [26]", "result": "~ 2.5 nm"}]}]}
